Measured values: article doi:10.1101/2025.06.13.659598 (bioRxiv, 2025)

Biological target: F-actin (rabbit skeletal muscle actin, polymerised) (rabbit, UniProt P68135 1-377)
Assay: co-sedimentation

B1: FHOD1 wild-type, full length (natural protein)
chain: MAGGEDRGDGEPVSVVTVRVQYLEDTDPFACANFPEPRRAPTCSLDGALPLGAQIPAVHRLLGAPLKLEDCALQVSPSGYYLDTELSLEEQREMLEGFYEEISKGRKPTLILRTQLSVRVNAILEKLYSSSGPELRRSLFSLKQIFQEDKDLVPEFVHSEGLSCLIRVGAAADHNYQSYILRALGQLMLFVDGMLGVVAHSDTIQWLYTLCASLSRLVVKTALKLLLVFVEYSENNAPLFIRAVNSVASTTGAPPWANLVSILEEKNGADPELLVYTVTLINKTLAALPDQDSFYDVTDALEQQGMEALVQRHLGTAGTDVDLRTQLVLYENALKLEDGDIEEAPGAGGRRERRKPSSEEGKRSRRSLEGGGCPARAPEPGPTGPASPVGPTSSTGPALLTGPASSPVGPPSGLQASVNLFPTISVAPSADTSSERSIYKARFLENVAAAETEKQVALAQGRAETLAGAMPNEAGGHPDARQLWDSPETAPAARTPQSPAPCVLLRAQRSLAPEPKEPLIPASPKAEPIWELPTRAPRLSIGDLDFSDLGEDEDQDMLNVESVEAGKDIPAPSPPLPLLSGVPPPPPLPPPPPIKGPFPPPPPLPLAAPLPHSVPDSSALPTKRKTVKLFWRELKLAGGHGVSASRFGPCATLWASLDPVSVDTARLEHLFESRAKEVLPSKKAGEGRRTMTTVLDPKRSNAINIGLTTLPPVHVIKAALLNFDEFAVSKDGIEKLLTMMPTEEERQKIEEAQLANPDIPLGPAENFLMTLASIGGLAARLQLWAFKLDYDSMEREIAEPLFDLKVGMEQLVQNATFRCILATLLAVGNFLNGSQSSGFELSYLEKVSEVKDTVRRQSLLHHLCSLVLQTRPESSDLYSEIPALTRCAKVDFEQLTENLGQLERRSRAAEESLRSLAKHELAPALRARLTHFLDQCARRVAMLRIVHRRVCNRFHAFLLYLGYTPQAAREVRIMQFCHTLREFALEYRTCRERVLQQQQKQATYRERNKTRGRMITETEKFSGVAGEAPSNPSVPVAVSSGPGRGDADSHASMKSLLTSRPEDTTHNRRSRGMVQSSSPIMPTVGPSTASPEEPPGSSLPSDTSDEIMDLLVQSVTKSSPRALAARERKRSRGNRKSLRRTLKSGLGDDLVQALGLSKGPGLEV
B1: binds.
